Laboratory results reported in patent publication US12527846B2, “Immunodominant proteins and fragments in multiple sclerosis” (UNIVERSITÄT ZÜRICH, priority 2018, dated 2026).

Legend:
[1] = tested on: CSF-infiltrating CD4+ T cells; assay: Recognition of GDP-L-fucose synthase peptides by PHA-expanded CSF-infiltrating CD4+ T cells from 31 CIS/MS patients; type: cell-based, human; settings: three-cluster k-means on patient scores
Experimental: In order to find out if specific recognition of GDP-L-fucose synthase occurs in CSF-infiltrating CD4+ T cells in patients with different forms of MS (the majority CIS and RRMS), a new protocol was developed to expand fresh CSF-infiltrating CD4+ T cells to high numbers in a single round to minimize variations in the original T cell repertoire. Resting PHA-expanded CSF-infiltrating CD4+ T cells, T cells that are also derived from the CNS compartment, from 31 CIS/MS patients were tested in quadruplicate with the 62 overlapping GDP-L-fucose synthase peptides presented by autologous irradiated PBMCs, as well as with the seven myelin peptides, CEF peptide pool and control beads. All stimulatory indices (Sls; except control beads) were pooled and SI values less than one were treated as having unit value. Cluster k-means analysis was performed to determine the optimal cut-off to differentiate responsive SI values from nonresponsive in this patient population. […] Subsequently, for each patient, all peptides having a median SI (of the quadruplicate wells) greater than 1.455 were identified as positive responses.
Next, patient scores were constructed by calculating the sum of each responsive peptide median SI, weighted by the number of total patients that responded to that peptide. […]
Proliferation was measured 72 h after stimulation by 3H-thymidine (Hartmann Analytic, Braunschweig, Germany) incorporation in a scintillation counter (Wallac 1450, PerkinElmer, Rodgau-Jurgesheim, Germany). The stimulatory index (SI) was calculated as follows: SI=Median (replicates cpm peptide)/Median (replicates cpm without peptide). Proliferation was also measured using a Click-iT™ EdU Flow Cytometry Assay Kit (APC, Molecular Probes, Invitrogen) following manufacturer's instructions. Cells were stained with the following antibodies anti-CD3 (PE-Cy-7, e-Bioscience, San Diego, CA) and anti-TRBV-21 (FITC, Beckman Coulter, Brea, CA) and analyzed by flow cytometry.

[2] = tested on: CD45RA-depleted PBMCs of natalizumab-treated MS patients; assay: RASGRP2 reactivity of peripheral blood-derived memory T cells (thymidine incorporation); type: cell-based, human; settings: n=8 natalizumab-treated MS patients; peptide pools 10 μM or whole protein 0.3 μg/ml, day 7
Experimental: In order to test reactivity to RASGRP2 in peripheral blood-derived memory T cells, cryopreserved PBMCs (1×10^8 cells) of natalizumab-treated MS patients (NAT; n=8) were thawed and afterwards depleted for CD45RA-expressing cells using magnetic cell sorting (Miltenyi). 2×10^8 CD45RA-depleted PBMCs were seeded per well (10-15 replicate wells per condition) in X-Vivo medium and were either treated with vehicle (DMSO), with CD2/CD3/CD28 beads or pulsed with RASGRP2 peptide pools (final concentration of pool 10 μM) or whole purified RASGRP2 protein (Origene; 0.3 μg/ml). The 15mer-overlapping peptides covering the whole RASGRP2 protein (SEQ ID NO:s 38-98) were organized in 9 peptide pools with 7 peptides per pool covering the sequence of RASGRP2 from N- (pool 1) to C-terminus (pool 9). Thymidine incorporation assay was used to measure proliferation responses to RASGRP2. At day 7 the cells were pulsed with 1 μCi of methyl-3H-thymidine per well (Hartmann Analytic) and harvested after 15 h on a membrane (Tomtec). Incorporation was measured by p-scintillation counting (Wallac 1450, PerkinElmer). The results are shown as dots (mean±SEM). Stimulatory index (SI) was calculated as ratio of peptide or protein stimulation vs. vehicle control. SI values>2 were considered as positive (FIG. 10).

Molecule	patients characterized as high responders [1] [%]	patients characterized as moderate responders [1] [%]	patients characterized as nonresponders [1] [%]	donors responding (SI values>2 positive) [2]
GDP L-fucose synthase (protein, listed as Homo sapiens, whole protein 1-321, GenBank AAH93061.1 or UniProtKB/Swiss-Prot Q13630) MGEPQGSMRILVTGGSGLVGKAIQKVVADGAGLPGEDWVFVSSKDADLTDTAQTRALFEKVQPTHVIHLAAMVGGLFRNIKYNLDFWRKNVHMNDNVLHSAFEVGARKVVSCLSTCIFPDKTTYPIDETMIHNGPPHNSNFGYSYAKRMIDVQNRAYFQQYGCTFTAVIPTNVFGPHDNFNIEDGHVLPGLIHKVHLAKSSGSALTVWGTGNPRRQFIYSLDLAQLFIWVLREYNEVEPIILSVGEEDEVSIKEAAEAVVEAMDFHGEVTFDTTKSDGQFKKTASNSKLRTYLPDFRFTPFKQAVKETCAWFTDNYEQARK	19.35	19.35	61.3	–
RASGRP2: RASGRP2 peptide pools (15mer-overlapping peptides, SEQ ID NOs 38-98, 9 pools) or whole purified RASGRP2 protein (Origene) (protein, listed as Homo sapiens) AAAAARPAGGSARRWGRPGRCGLLAAGPKRVRSEPGGRLPERSLGPAHPAPAAMAGTLDLDKGCTVEELLRGCIEAFDDSGKVRDPQLVRMFLMMHPWYIPSSQLAAKLLHIYQQSRKDNSNSLQVKTCHLVRYWISAFPAEFDLNPELAEQIKELKALLDQEGNRRHSSLIDIDSVPTYKWKRQVTQRNPVGQKKRKMSLLFDHLEPMELAEHLTYLEYRSFCKILFQDYHSFVTHGCTVDNPVLERFISLFNSVSQWVQLMILSKPTAPQRALVITHFVHVAEKLLQLQNFNTLMAVVGGLSHSSISRLKETHSHVSPETIKLWEGLTELVTATGNYGNYRRRLAACVGFRFPILGVHLKDLVALQLALPDWLDPARTRLNGAKMKQLFSILEELAMVTSLRPPVQANPDLLSLLTVSLDQYQTEDELYQLSLQREPRSKSSPTSPTSCTPPPRPPVLEEWTSAAKPKLDQALVVEHIEKMVESVFRNFDVDGDGHISQEEFQIIRGNFPYLSAFGDLDQNQDGCISREEMVSYFLRSSSVLGGRMGFVHNFQESNSLRPVACRHCKALILGIYKQGLKCRACGVNCHKQCKDRLSVECRRRAQSVSLEGSAPSPSPMHSHHHRAFSFSLPRPGRRGSRPPEIREEEVQTVEDGVFDIHL	–	–	–	All 8 donors responded
